The numbers were not newly measured in patent publication US6632836B1, “Carbocyclic potassium channel inhibitors” (Merck & Co., Inc., priority 1998, dated 2003), which cites them from elsewhere.

The data set deals with T1, Kv1.3 channels (Homo sapiens, UniProt P22001).
T1 construct: expressed in transfected cells; host or cells: CHO cells
The conditions noted are these: reference blocker used at saturating concentration to establish the efflux window; read-out: IC50 as blocker of Kv1.3 channels.

pIC50: −log10 of the molar value.

T1 sequence (P22001 whole entry): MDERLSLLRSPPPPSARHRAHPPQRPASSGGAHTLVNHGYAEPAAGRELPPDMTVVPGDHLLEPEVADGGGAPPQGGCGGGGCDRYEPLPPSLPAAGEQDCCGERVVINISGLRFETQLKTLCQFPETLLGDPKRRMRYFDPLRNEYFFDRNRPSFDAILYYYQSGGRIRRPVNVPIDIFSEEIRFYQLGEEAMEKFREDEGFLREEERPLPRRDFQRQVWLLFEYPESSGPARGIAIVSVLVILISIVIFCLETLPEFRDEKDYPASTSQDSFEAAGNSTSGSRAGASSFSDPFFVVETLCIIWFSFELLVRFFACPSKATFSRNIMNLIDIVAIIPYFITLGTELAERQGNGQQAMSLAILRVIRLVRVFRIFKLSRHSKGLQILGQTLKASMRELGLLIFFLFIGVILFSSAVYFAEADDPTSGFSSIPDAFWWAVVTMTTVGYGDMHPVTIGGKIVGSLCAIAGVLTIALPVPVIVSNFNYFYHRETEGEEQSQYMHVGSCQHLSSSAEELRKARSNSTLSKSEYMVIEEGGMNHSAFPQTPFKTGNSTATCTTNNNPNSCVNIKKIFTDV

“margatoxin (TIINVKCTSPKQCLPPCKAQFGQSAGAKCMNGKCKCYPH; UniProt P40755 1-39, looked up)”: the pIC50 was 10.00.

By pIC50 is commonly meant −log10 of the IC50, conventionally taken in molar units.
